Source: publication PMC5927996

Legend:
collagen = assay: cell adhesion assay
fibrinogen = fibrinogen (UniProt P02671); assay: SPR
fibrinogen, P02671 = molecular target: T1, fibrinogen, P02671; assay: cell adhesion assay; settings: remark: other sources report otherwise
T1 chain 1: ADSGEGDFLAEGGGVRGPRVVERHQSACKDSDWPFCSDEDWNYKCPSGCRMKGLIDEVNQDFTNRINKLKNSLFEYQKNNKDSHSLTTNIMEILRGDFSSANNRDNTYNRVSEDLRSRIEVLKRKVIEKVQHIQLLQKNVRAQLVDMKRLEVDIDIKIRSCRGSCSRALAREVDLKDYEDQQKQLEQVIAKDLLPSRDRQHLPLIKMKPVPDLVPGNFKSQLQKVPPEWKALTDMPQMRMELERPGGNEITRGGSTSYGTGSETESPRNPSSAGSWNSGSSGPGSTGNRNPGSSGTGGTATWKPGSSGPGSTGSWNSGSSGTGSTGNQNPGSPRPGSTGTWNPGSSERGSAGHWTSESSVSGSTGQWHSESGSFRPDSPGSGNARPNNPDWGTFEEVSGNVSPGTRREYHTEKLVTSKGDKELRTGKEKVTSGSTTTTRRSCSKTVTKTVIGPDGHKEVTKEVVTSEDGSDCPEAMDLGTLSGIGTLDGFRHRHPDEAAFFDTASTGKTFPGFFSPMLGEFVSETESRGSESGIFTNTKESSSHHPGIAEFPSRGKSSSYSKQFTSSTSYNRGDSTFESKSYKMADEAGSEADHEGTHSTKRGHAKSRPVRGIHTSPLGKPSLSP
T1 chain 2: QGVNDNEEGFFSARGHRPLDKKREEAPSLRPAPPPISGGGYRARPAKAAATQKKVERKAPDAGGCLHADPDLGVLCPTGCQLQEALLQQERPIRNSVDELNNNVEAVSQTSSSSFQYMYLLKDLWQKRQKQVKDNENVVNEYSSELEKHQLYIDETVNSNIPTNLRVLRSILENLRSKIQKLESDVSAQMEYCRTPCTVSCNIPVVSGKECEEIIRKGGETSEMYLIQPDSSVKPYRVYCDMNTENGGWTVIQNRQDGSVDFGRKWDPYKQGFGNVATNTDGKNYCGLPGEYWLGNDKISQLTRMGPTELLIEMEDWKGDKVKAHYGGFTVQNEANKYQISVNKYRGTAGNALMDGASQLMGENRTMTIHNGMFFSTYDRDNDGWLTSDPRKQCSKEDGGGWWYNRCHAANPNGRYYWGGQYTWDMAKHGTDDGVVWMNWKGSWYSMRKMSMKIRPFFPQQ
T1 chain 3: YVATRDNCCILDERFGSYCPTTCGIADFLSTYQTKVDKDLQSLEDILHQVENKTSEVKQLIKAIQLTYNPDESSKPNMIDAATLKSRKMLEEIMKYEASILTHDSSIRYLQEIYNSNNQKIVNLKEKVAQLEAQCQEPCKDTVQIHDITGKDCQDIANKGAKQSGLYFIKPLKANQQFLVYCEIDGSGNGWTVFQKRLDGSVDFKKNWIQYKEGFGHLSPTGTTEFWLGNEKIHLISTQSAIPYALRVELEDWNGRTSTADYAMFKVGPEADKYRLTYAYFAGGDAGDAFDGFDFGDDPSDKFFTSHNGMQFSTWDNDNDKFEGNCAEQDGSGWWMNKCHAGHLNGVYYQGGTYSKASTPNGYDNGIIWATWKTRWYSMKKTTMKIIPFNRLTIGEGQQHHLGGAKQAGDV

human GPVI expressed on RBL-2H3 cells (from UniProt Q9HCN6 21-339) (receptor)
fold increase in cell adhesion relative to mock-transfected cells (collagen): 3 fold

recombinant soluble GPVI extracellular domain, monomer (GPVI-ex) (from UniProt Q9HCN6 21-267) (domain or fragment)
Kd (fibrinogen): 336 nM | koff (fibrinogen): 0.00394 s⁻¹ | kon (fibrinogen): 11700 M⁻¹ s⁻¹

B1: human GPVI expressed on RBL-2H3 cells, Q9HCN6 21-339 (receptor)
chain: QSGPLPKPSLQALPSSLVPLEKPVTLRCQGPPGVDLYRLEKLSSSRYQDQAVLFIPAMKRSLAGRYRCSYQNGSLWSLPSDQLELVATGVFAKPSLSAQPGPAVSSGGDVTLQCQTRYGFDQFALYKEGDPAPYKNPERWYRASFPIITVTAAHSGTYRCYSFSSRDPYLWSAPSDPLELVVTGTSVTPSRLPTEPPSPVAEFSEATAELTVSFTNEVFTTETSRSITASPKESDSPAGPARQYYTKGNLVRICLGAVILIILAGFLAEDWHSRRKRLRHRGRAVQRPLPPLPPLPLTRKSNGGQDGGRQDVHSRGLCS
fold increase in cell adhesion relative to mock-transfected cells (fibrinogen, P02671): 3 fold
